Among the data in the supplement of paper PMC10126150 are switch fluorescence ratio values, retold here.

± gives the standard deviation of the averaged measurements.

The series deals with ATP. Nature of the series: switch fluorescence ratio, 500 uM ATP over buffer (Cy3 cluster intensity, sum of 5 cycles each) (fold (ratio)); higher = stronger signal-on switching upon ATP binding; sequences stand for … in TCGTCGGCAGCGTCAGATGTGTATAAGAGACAGTTTTTTTTTTTTTTTTTTTTTTTTT…TC. The following applies: aptamer strand: ATP DNA aptamer (quencher-CACCTGGGGGAGTATTGCGGAGGAAGG + anchor), 100 nM annealed; ATP concentration: 500 uM. In outline:
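Imaging in selection buffer was followed by imaging after 15 min with 500 uM ATP at 22 °C, for Cy3-labelled switching-strand clusters annealed to 100 nM quencher-labelled ATP aptamer on a modified Illumina MiSeq flow-cell. Five of these buffer/ATP cycles ran, separated by NaOH stripping and re-annealing. The fluorescence ratio per cluster is summed target-cycle over summed buffer-cycle Cy3 intensity, averaged per switch-domain sequence; clusters outside 100-1000 RFU were removed.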
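Also: ATP exposure 15 min at 22 °C before imaging.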

Take TGCGATATTA: the switch fluorescence ratio was found to be 1.02 ± 0.031.
Take TGCGATGGTC: the switch fluorescence ratio was found to be 1.18 ± 0.065.
Then TGCGATTATG, with 1.02 ± 0.041.
Then TGCGATTTGT, with 1.04 ± 0.043; and TGCGCAATTT, with 1.205 ± 0.0054.
Then TGCGCCTCAG, with 1.08 ± 0.074; and TGCGGCCGGG, with 1.01 ± 0.012.
For TGCGGCGACG, the switch fluorescence ratio was determined as 0.993 ± 0.015.
Then TGCGGCTGGG, with 0.978 ± 0.019; and TGCGGCTTCG, with 0.913 ± 0.061.
Then TGCGGGCTAG, with 1.01 ± 0.015; and TGCGGGGTAC, with 1.25 ± 0.045.
For the sequence TGCGGGGTCA, the switch fluorescence ratio was found to be 1.02 ± 0.034.
The value for TGCGGGTAAT was 0.9985 ± 0.0046; that for TGCGGGTGGG was 1.03 ± 0.026; that for TGCGGGTTAG was 0.984 ± 0.032.
On to TGCGGTCCTG, for which the switch fluorescence ratio stood at 1 ± 0.017.
The value for TGCGGTCGCG was 0.959 ± 0.012; that for TGCGGTGTGC was 1.04 ± 0.017.
Then TGCGTAGGGT, with 0.967 ± 0.011; and TGCGTAGTTA, with 0.987 ± 0.012; and TGCGTCAAAT, with 0.999 ± 0.024.
On to TGCGTCCCAA, for which the switch fluorescence ratio came out at 1.34 ± 0.021.
TGCGTCGGCG: the switch fluorescence ratio worked out at 1 ± 0.013.
The value for TGCGTGAAGT was 1.041 ± 0.0091; that for TGCGTTGGTG was 1.006 ± 0.0061; that for TGCTAAAGGT was 0.9836 ± 0.0095.
The value for TGCTACAGGA was 1.02 ± 0.0049; that for TGCTACTGC was 1.03 ± 0.015; that for TGCTAGAAGT was 0.9792 ± 0.003.
The value for TGCTATAAAG was 0.988 ± 0.043; that for TGCTATAATG was 1.02 ± 0.021; that for TGCTATATTA was 0.99152 ± 0.00065.
Regarding TGCTCAATGA, the switch fluorescence ratio was 0.9737 ± 0.0075.
With TGCTGAGTTT, the switch fluorescence ratio was 1.01 ± 0.05.
Then TGCTGCCTAC, with 2.38 ± 1.6; and TGCTGCGGTG, with 0.993 ± 0.0084; and TGCTGGAAGT, with 0.977 ± 0.032.
Then TGCTGGACTT, with 0.987 ± 0.015; and TGCTGGATT, with 0.983 ± 0.025; and TGCTGGATTA, with 1.01 ± 0.031.
The value for TGCTGGCCGG was 0.98 ± 0.022.
Take TGCTGGCTGG: the switch fluorescence ratio was determined as 0.973 ± 0.0016.
Then TGCTGGGGAA, with 1.01 ± 0.028; and TGCTGGGTAT, with 0.9954 ± 0.0031; and TGCTGGGTCC, with 1.02 ± 0.02.
The value for TGCTGGGTTT was 0.998 ± 0.011.
The value for TGCTGTTGGC was 0.928 ± 0.025.
As for TGCTTCATGT, the switch fluorescence ratio came out at 0.985 ± 0.027.
Then TGCTTGTATT, with 1.01 ± 0.027; and TGCTTGTTAG, with 0.989 ± 0.07.
The value for TGCTTTAAAG was 1 ± 0.037; that for TGCTTTAGGG was 0.965 ± 0.029; that for TGGAAAAGGG was 1.032 ± 0.0082.
Then TGGAACCGGA, with 1.02 ± 0.011.
Consider TGGAACTTAT, for which the switch fluorescence ratio turned out to be 0.997 ± 0.056.
Then TGGAAGAAAT, with 1.02 ± 0.011.
The value for TGGAAGAGGG was 1 ± 0.018.
Then TGGAAGGGG, with 1.02 ± 0.015.
With TGGAAGGTT, the switch fluorescence ratio is 0.987 ± 0.019.
Then TGGAATTAAC, with 1.02 ± 0.042; and TGGAATTACT, with 1.26 ± 0.36; and TGGAATTTGG, with 1 ± 0.038.
Then TGGACAAATT, with 1.02 ± 0.022; and TGGACATGTG, with 1.05 ± 0.1; and TGGACCGGTC, with 0.996 ± 0.01.
Then TGGACGGGGC, with 1.034 ± 0.0099; and TGGAGAAAGT, with 1.03 ± 0.067.
With TGGAGAGGGG, the switch fluorescence ratio was determined as 0.996 ± 0.05.
The value for TGGAGAGTGT was 0.963 ± 0.036; that for TGGAGGGGCT was 0.987 ± 0.046.
TGGAGGTCCG: the switch fluorescence ratio amounted to 1.06 ± 0.023.
On to TGGAGTAACT, for which the switch fluorescence ratio was determined as 1.0876 ± 0.00087.
Consider TGGAGTCCGG, for which the switch fluorescence ratio was found to be 0.987 ± 0.036.
The value for TGGAGTTTAA was 1 ± 0.026.
For the sequence TGGATAGAGT, the switch fluorescence ratio is 0.985 ± 0.02.
The value for TGGATAGGCA was 0.986 ± 0.012.
Then TGGATAGGTA, with 0.995 ± 0.023; and TGGATATGAC, with 1 ± 0.015; and TGGATCAAGT, with 1.01 ± 0.06.
The value for TGGATGATAT was 0.9913 ± 0.008.
As for TGGATGTCTG, the switch fluorescence ratio turned out to be 0.978 ± 0.044.
For TGGATTAAGT, the switch fluorescence ratio came to 1.02 ± 0.042.
The value for TGGATTATGT was 1.005 ± 0.0045.
Then TGGATTGGGT, with 1 ± 0.046; and TGGCACAGTG, with 0.996 ± 0.019; and TGGCACGCGG, with 0.986 ± 0.019.
The value for TGGCACGTAT was 1.09 ± 0.03; that for TGGCAGAAGG was 1.06 ± 0.076.
For the sequence TGGCAGTAAA, the switch fluorescence ratio was 1.02 ± 0.039.
Then TGGCATATTT, with 1.05 ± 0.051; and TGGCATTGGT, with 0.983 ± 0.014.
Turning to TGGCCGACTT, the switch fluorescence ratio came out at 1.02 ± 0.02.
With TGGCCGCTTT, the switch fluorescence ratio stood at 1.03 ± 0.03.
Then TGGCCGGAAT, with 1.04 ± 0.03.
Then TGGCCTAACT, with 1.02 ± 0.042; and TGGCCTTCGT, with 1.13 ± 0.049; and TGGCGAGAGG, with 1 ± 0.022.
The value for TGGCGATTGG was 0.985 ± 0.023; that for TGGCGGATTT was 0.998 ± 0.031.
TGGCGGGGAC: the switch fluorescence ratio turned out to be 1.1 ± 0.17.
The value for TGGCGGGGGC was 1.02 ± 0.011; that for TGGCGGTAGT was 1.06 ± 0.056.
The value for TGGCGTTGGG was 1.02 ± 0.046.
Then TGGCTCCCGC, with 1.089 ± 0.0041; and TGGCTCGAGC, with 1.01 ± 0.017; and TGGCTCGGCT, with 1.03 ± 0.051.
Turning to TGGCTGAGAA, the switch fluorescence ratio came to 0.9723 ± 0.0028.
Then TGGCTGATTT, with 1.003 ± 0.0053; and TGGCTGCTGG, with 0.949 ± 0.013; and TGGCTGGAAC, with 0.981 ± 0.021.
Then TGGCTGGGCT, with 1.03 ± 0.05; and TGGCTTGGGG, with 1.03 ± 0.051; and TGGGAAAGCC, with 0.981 ± 0.012.
On to TGGGAAAGCG, for which the switch fluorescence ratio is 1 ± 0.024.
Then TGGGAACCAA, with 1.02 ± 0.022; and TGGGAAGGTT, with 1.02 ± 0.041; and TGGGAATACG, with 1.11 ± 0.048.
Then TGGGAATGCC, with 0.994 ± 0.025.
The value for TGGGAATGGT was 1.01 ± 0.048.
